In FireProtDB (doi:10.1111/j.1432-1033.1992.tb17411.x):

B1: Cystatin-A wild type, P01040 (protein)
chain: MIPGGLSEAKPATPEIQEIVDKVKPQLEEKTNETYGKLEAVQYKTQVVAGTNYYIKVRAGDNKYMHLKVFKSLPGQNEDLVLTGYQVDKNKDDELTGF
B2: Cystatin-B wild type, P04080 (protein)
chain: MMCGAPSATQPATAETQHIADQVRSQLEEKENKKFPVFKAVSFKSQVVAGTNYFIKVHVGDEDFVHLRVFQSLPHENKPLTLSNYQTNKAKHDELTYF

Conditions: Homo sapiens; pH 5; Thermal; DSC; Sodium acetate 0.02 M; NaCl 0.13 M; reversible: yes; whole UniProt chain shown
With B1 the Tm was 90.8 °C, the “unfolding enthalpy (calorimetric)” value was 113 kcal/mol and the “unfolding enthalpy (van 't Hoff)” value was 129 kcal/mol. For B2, the Tm was 50.2 °C, the “unfolding enthalpy (calorimetric)” value was 70 kcal/mol and the “unfolding enthalpy (van 't Hoff)” value was 73 kcal/mol.

Same assay, conditions: Homo sapiens; pH 6.5; Thermal; DSC; Sodium phosphate 0.01 M; NaCl 0.13 M; reversible: yes; whole UniProt chain shown
With B1 the Tm was 94.5 °C, the “unfolding enthalpy (calorimetric)” value was 116 kcal/mol and the “unfolding enthalpy (van 't Hoff)” value was 148 kcal/mol.

Same assay, conditions: Homo sapiens; pH 6.5; Thermal; DSC; Sodium phosphate 0.01 M; NaCl 0.13 M; reversible: no; whole UniProt chain shown
With B2 the Tm was 64.9 °C and the “unfolding enthalpy (calorimetric)” value was 78 kcal/mol.

Same assay, conditions: Homo sapiens; pH 8.1; 10 °C; Thermal; DSC; HEPES 0.01 M; NaCl 0.13 M; reversible: yes; whole UniProt chain shown
In the case of B2, the unfolding free energy is reported as 6 kcal/mol.

Same assay, conditions: Homo sapiens; pH 8.1; 25 °C; Thermal; DSC; HEPES 0.01 M; NaCl 0.13 M; reversible: yes; whole UniProt chain shown
In the case of B2, the unfolding free energy is reported as 5.9 kcal/mol.

Same assay, conditions: Homo sapiens; pH 8.1; 45 °C; Thermal; DSC; HEPES 0.01 M; NaCl 0.13 M; reversible: yes; whole UniProt chain shown
Work on B2 yielded an unfolding free energy of 3.99 kcal/mol.

Same assay, conditions: Homo sapiens; pH 8.1; 50 °C; Thermal; DSC; HEPES 0.01 M; NaCl 0.13 M; reversible: yes; whole UniProt chain shown
Work on B2 yielded an unfolding free energy of 3.2 kcal/mol.

Same assay, conditions: Homo sapiens; pH 8.1; Thermal; DSC; HEPES 0.01 M; NaCl 0.13 M; reversible: no; whole UniProt chain shown
In the case of B2, the Tm is reported as 65.9 °C and the “unfolding enthalpy (calorimetric)” value is reported as 81 kcal/mol.
